Source: paper PMC9829383

Target: Ecad ectodomain K14E mutant
Assay: single-molecule AFM dynamic force spectroscopy

koff: 0.78 s⁻¹
Substance: Ecad ectodomain K14E mutant (domain or fragment)
